Results reported in the nanobody polyreactivity screen of Harvey et al. (2022).

Test: yeast display, Sf9 membrane polyspecificity reagent, FACS + sequencing; frameworks hold sequencing errors
Summary of the method: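 Polyreactivity labels are assigned by the sorting gate from which each nanobody was recovered. The gates were low and high (top ~1%), set on anti-HA fluorescence for expression and streptavidin fluorescence for reagent binding. Before sorting, galactose-induced (36–48 hours) yeast display cells were stained for 1 hour at 4 °C with 10% biotinylated, detergent-solubilized Sf9 membrane reagent.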

| Sequence | polyreactivity (PSR sort gate) |
| --- | --- |
| QVQLLESGGGLVQEGGSLRLSCAASGFIFSKNVMGWYRHAPGKERELVARITRSGGTTYYADSVKGRFTISRDNAKYTVYLQMNSLKPEDTAVYYCAARRYGYTSITWYDYWGQGTQVTVSS | high polyreactivity |
| QVQLLESGGGLVQEGGSLRLSCAASGSTFHSYAMGWYRQAPGKERELVAGINRTGGSTYYADSVKGRFTISRDNAKNTVYLQMNSLKPEDTAVYYCAAVSYYASVYRYDYWGQGTQVTVSS | low polyreactivity |
| QVQLLESGGGLVQPGGSLRLSCAASGRTFRLNGMGWNRQAPGKERELVAAITWSGGRTYYADSVKGRFTISRDNAKKTVYVQMNSLTPEDTAVYYCAADFRDGFTSRYGYWGQGTQVTVSS | high polyreactivity |
| QVQLLESGGGLVQSGGSLRLSCAASGRNFTPYAMGWYRQAPGKERELVAAITGSGGITYYADSVKGRFTISRDNAKNTVYFQMNSLKPVDTAVYYCAKDWWQSDSVGDYTHYEYDYWGQGTQVTVSS | low polyreactivity |
| QVQLLESGRGLVQAGGSLRLSCAASGRTFVGYAMVWYRKAHGKERELVAGITASGGTTYYADSVKGRFTISRDNAKNTVYLQMNSLKPEDTAVYYCATTTTRYRYKKNYYWGQGIQVTVSS | high polyreactivity |
| QVQLLESGRGLVQAGGSLRLSCAPSGLTFRYMAMGWYIQAPGKERELVAAINSGGRTNYADSVKGRFTISRDNAKNTVFLQMNSLKPEDTAVYYCAAVRHWTVGWTYYYWGQGTQVTVSS | high polyreactivity |
| QVQLLESWGGLVHAGGSVRLSCAASGSIFGYNAMGWYRESPGKEREWVAAISWDGGSTYYADSVKGRFTISRDNAKYNVFLQMNSLKPEDTAVYYCAAEGLRFVYEYWGQGTQVTVSS | low polyreactivity |
| QVQLLESWGGLVQAGGSLRLSCAASGSIFSYYAMGWYRQAPGKERELVATISSGDSTYYADTVKGRFTISRDNAKNTVYLQMHSLNPEDTEVYYCARKPRIRYYPAPYDYWGQGTQVTVSS | low polyreactivity |
| QVQLLETGGGLVQAGGSLRLSCAASGSIFSRNDMGWYRPAPGKERELVAAITWSGGSTYYADSVKGRFTISRDNAKNTVYLQMNSLKPEDTAVYYCATRYTRVYDCWGQGTLVTVSS | high polyreactivity |
| QVQLLGSGGGLVQACGSLRLSCSASGSISHYIFMGWYRQAPAKEREFVAGIGYGGTTNYADSVKGRFTISRDNAKNTVYLQMNSLKPEDTAMYYCAAREATAFYLYYCGQGTQVTVSS | low polyreactivity |
| QVQLQASGVGLVQSGGSLRLSCASRGTNFTARFMGWYRQAPGKERELVATITDGGNTNHADRVKGRFTISRDNAKNTVYLQMNSLKPEDAAVYYCAAGEVDNDTLLYWGQGSQVTVSS | low polyreactivity |
| QVQLQEGGGGLVQAGGSLRLSCAASGYISYGDVMGWYRQAPGEERELVASIGLDATTNYADSVKGRFTISRDNAKITVYLQMNSLKPEATAVYYCAADVGSGVMCGYWGQGTQMTVSS | high polyreactivity |
| QVQLQEGGGLVQAGGSLRLSCAASGYISSRPAMGWYRQAPGKERAFVATIADGTSTYYADSVKGRFTISRDNAINTVYLQMNSLKPEDTSVYYWAAAYNTEFDLSYWGQGTQVTVSS | high polyreactivity |
| QVQLQEGGGLVQAGGSLRLSCAASGYISSRPAMGWYRQAPGLERAFVATIADGTSTDYADSVKGRFTISRDNAKNTVYLQMYRLQPEDTAVNYCAAAYNTQYYLSYWGQGTQVTVRS | high polyreactivity |
| QVQLQERAAWCRRAGSLRLSCAASGNISDYYFMGWYRQAPGKERELVAAIAPGSNTYYADSVKGRFTISRDNAKNTVYLQMNSLKPEDTAVCFCAADSTQYTWFDYWGQGTQVTVSS | low polyreactivity |
| QVQLQESAGGLVQAGGSLRLRCSASGYSSCDASMGWYRQAPGKERELAASITKGSSTNYADSVKGRFTIRDNAKNTVYLQMNSLKPEDTAVWYCGVTYPYWGDYTYWGKGTQVTVSS | low polyreactivity |
